Paper PMC9165289, “Theranostic PSMA ligands with optimized backbones for intraoperative multimodal imaging and photodynamic therapy of prostate cancer” (European Journal of Nuclear Medicine and Molecular Imaging, 2022)
Read-outs that look alike come from different tables or passages of the source.

Key:
PSMA = molecular target: T1, PSMA (Homo sapiens, UniProt Q04609); test: competitive binding assay using LS174T-PSMA cells
T1 construct: expressed in transfected cells; host or cells: LS174T colon carcinoma cells (LS174T-PSMA)
T1 sequence (Q04609 whole entry): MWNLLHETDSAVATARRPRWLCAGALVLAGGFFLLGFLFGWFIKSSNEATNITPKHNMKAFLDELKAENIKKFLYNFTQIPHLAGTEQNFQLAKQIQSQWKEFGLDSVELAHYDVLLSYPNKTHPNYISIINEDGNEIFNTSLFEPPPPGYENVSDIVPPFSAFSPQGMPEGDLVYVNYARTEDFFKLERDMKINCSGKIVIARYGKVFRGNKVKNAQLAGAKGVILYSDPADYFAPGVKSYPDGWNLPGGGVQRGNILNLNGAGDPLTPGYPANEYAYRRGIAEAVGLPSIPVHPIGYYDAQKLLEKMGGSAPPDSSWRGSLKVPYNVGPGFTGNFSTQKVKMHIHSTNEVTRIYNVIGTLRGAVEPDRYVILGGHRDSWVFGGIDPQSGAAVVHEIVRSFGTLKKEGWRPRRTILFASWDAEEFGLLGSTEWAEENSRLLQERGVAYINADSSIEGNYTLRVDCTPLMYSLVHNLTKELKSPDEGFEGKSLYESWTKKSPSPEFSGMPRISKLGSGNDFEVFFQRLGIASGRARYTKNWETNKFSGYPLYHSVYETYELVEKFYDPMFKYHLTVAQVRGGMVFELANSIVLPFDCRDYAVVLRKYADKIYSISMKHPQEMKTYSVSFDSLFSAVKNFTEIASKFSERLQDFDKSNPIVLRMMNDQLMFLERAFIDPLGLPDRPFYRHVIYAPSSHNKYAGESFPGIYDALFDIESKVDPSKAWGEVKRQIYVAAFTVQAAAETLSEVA
Description: Fig. 3 In vitro characterization of [^111In]In-DOTA(GA)-IRDye700DX-PSMA ligands varying in their backbone composition. a Labeling efficiency of [^111In]In-DOTA-PSMA-N01, -N02, -N03, [^111In]In-DOTAGA-PSMA-N064 and -N064inc at a specific activity of either 10 MBq/µg or 30 MBq/µg (n = 2). IC50 values of ligands as determined in competitive binding assays using LS174T-PSMA cells. b Binding and internalization of [^111In]In-DOTA-PSMA-N01, -N02, -N03, [^111In]In-DOTAGA-PSMA-N064 and -N064inc in LS174T PSMA-positive cells. Membrane binding and internalization are corrected for non-specific binding and accumulation, as determined by co-incubation with an excess of 2-PMPA (50 µg). [^111In]In-DOTA-PSMA-617 was added as a positive control. c PSMA-targeted PDT efficacy of ligands in vitro. Cell viability of LS174T-PSMA (PSMA +) and LS174T wildtype (PSMA-) cells following incubation with 30 nM of PSMA-N01, -N02, -N03, -N064, and -N064inc, after either a 100 J/cm^2 (450 mW/cm^2) radiant exposure or no light exposure (dark).

LS174T-PSMA cells = test: in vitro binding and internalization assay; assay type: cell-based, human; conditions: 37 °C, 2 h
Experimental: The binding and internalization characteristics of the ligands were determined using LS174T-PSMA cells. Cells were cultured to confluency in 6-well plates followed by incubation with 50,000 counts per minute of ^111In-labeled ligand (0.1–0.25 pmol/well) in 1-ml RPMI + 0.5% BSA (37 °C, 2 h). Non-specific binding was determined by coincubation with 2(phosphonomethyl)-pentane-1,5-dioic acid (2-PMPA, 21.57 µM). PSMA-specific binding was defined as total binding minus the non-specific binding. To retrieve the membrane-bound fraction, cells were washed twice with PBS and incubated for 10 min at 0 °C with acid buffer (154-mM NaCl, 0.1 M acetic acid, pH 2.6). After incubation, the membrane-bound fraction was collected. Then, cells were washed and lysed with 0.1 M NaOH, and the cell lysate (intracellular activity) was collected. Intracellular and membrane-bound activity fractions were measured in a gamma-counter (2480 WIZARD^2 Automatic Gamma Counter, PerkinElmer).

[1] = ex vivo biodistribution of 111In-labeled ligands; set-up: species or system BALB/c nude mice; conditions: male, BALB/c nude, mouse, iv, 0.3 nmol, total radioactivity, 2 h p.i.; for tissue uptake at 2 h: 10 MBq/mouse, i.v.
Experimental: (§1) All animal experiments were approved by the institutional Animal Welfare Committee of the Radboud University Medical Center and were conducted in accordance to the guidelines of the Revised Dutch Act on Animal Experimentation. Animal experiments were performed in 8–10 weeks old male BALB/c nude mice (Janvier). The mice were housed in individually ventilated cages (Blue line IVC, 3–5 mice per cage), under standard non-sterile conditions with cage enrichment present. There was free access to chlorophyll-free animal chow (Sniff Voer) and water. Mice were subcutaneously inoculated with 3.0 × 10^6 LS174T-PSMA cells in the right flank and 1.5 × 10^6 LS174T WT cells in the left flank (diluted in 200-µl RPMI 1640 medium). When xenografts were approximately 0.5 cm^3 (10–14 days after injection), mice were block-randomized into groups based on tumor size. The researchers were not blinded for the experimental groups.
(§2) Mice were intravenously injected with 0.3 nmol PSMA ligand, labeled with 10 MBq ^111In (molar activity 33.3 MBq/nmol) in PBS + 0.5% (w/v) BSA. For the ex vivo biodistribution, five groups (one group for each ligand) of four mice were included. Two hours p.i., all mice were euthanized by CO2/O2-asphyxiation. For two mice of each group (2 mice/ligand), background-subtracted fluorescence images were acquired with the IVIS imaging system (Xenogen VivoVision IVIS Lumina II, PerkinElmer), with a 640-nm excitation filter and a Cy5.5 emission filter and an acquisition time of 10 s. Next, µSPECT/CT imaging was performed in the same two mice per group, with a 1.0-mm diameter pinhole mouse collimator tube (U-SPECT II, MILabs). Mice were scanned for 30 min followed by a CT scan for anatomical reference (spatial resolution 160 μm, 615 μA, 65 kV). MILabs reconstruction software was used to reconstruct the µSPECT/CT scans, via an ordered-subset expectation maximization algorithm, energy windows 154–188 keV and 220–270 keV, 3 iterations, 16 subsets, and voxel size of 0.75 mm. SPECT/CT maximum intensity projections (MIPs) were created using the Inveon Research Workplace software (Siemens Preclinical Solutions, version 4.1). NIR fluorescence images were analyzed using Living Image software (PerkinElmer, version 4.2). After imaging, relevant tissues were dissected, weighed, and measured for radioactivity in a gamma-counter (2480 WIZARD^2 Automatic Gamma Counter, PerkinElmer). In addition, a blocking experiment with PSMA-N064 and PSMA-617 was performed. Full experimental procedures and results can be found in the supplementary data (Page 5, Supplementary Fig. 3).

[2] = system: LS174T-PSMA and LS174T wildtype xenografts; test: ex vivo biodistribution of 111In-labeled ligands; set-up: species or system BALB/c nude mice; conditions: 0.3 nmol, 2 h p.i.
Experimental: as §1, §2

C[Si](C)(CCC[N+](CCCS(=O)(=O)[O-])(CCCS(=O)(=O)O)CCCS(=O)(=O)O)O[Si]1(O[Si](C)(C)CCC[N+](CCCS(=O)(=O)[O-])(CCCS(=O)(=O)O)CCCS(=O)(=O)O)n2c3c4ccccc4c2N=C2N=C(N=c4c5c(OCCCOC(=O)NCCCCCC(=O)NCCCC[C@H](NC(=O)CN6CCN(CC(=O)O)CCN(CC(=O)O)CCN(CC(=O)O)CC6)C(=O)NCCCC[C@H](NC(=O)[C@H](CCC(=O)O)NC(=O)c6ccccc6)C(=O)NC[C@H]6CC[C@H](C(=O)N[C@@H](Cc7ccc8ccccc8c7)C(=O)NCCCC[C@H](NC(=O)N[C@@H](CCC(=O)O)C(=O)O)C(=O)O)CC6)cccc5c(n41)=NC1=NC(=N3)c3ccccc31)c1ccccc12 [PSMA-N03]
IC50 (PSMA): 41.8 nM | IC50 (PSMA; listed as -N03): < 50 nM | internalization percentage (percentage of cell-associated ligand that was internalized) (LS174T-PSMA cells): 73–90% | tissue uptake at 2 h ([1]; LS174T wildtype tumor, n=4, read-out: Biodistribution Tumor- LS174T): 1.1 ± 0.2 %ID/g | tissue uptake at 2 h ([1]; LS174T-PSMA tumor, n=4, read-out: Biodistribution Tumor+ LS174T-PSMA): 20 ± 2 %ID/g | tissue uptake at 2 h ([1]; adrenals, n=4, read-out: Biodistribution Adrenals): 2.1 ± 0.8 %ID/g | tissue uptake at 2 h ([1]; blood, n=4, read-out: Biodistribution Blood): 0.7 ± 0.1 %ID/g | tissue uptake at 2 h ([1]; bone marrow, n=4, read-out: Biodistribution Bone marrow): 0.2 ± 0.1 %ID/g | tissue uptake at 2 h ([1]; bone, n=4, read-out: Biodistribution Bone): 0.5 ± 0.1 %ID/g | tissue uptake at 2 h ([1]; duodenum, n=4, read-out: Biodistribution Duodenum): 0.4 ± 0.03 %ID/g | tissue uptake at 2 h ([1]; heart, n=4, read-out: Biodistribution Heart): 0.4 ± 0.04 %ID/g | tissue uptake at 2 h ([1]; kidney, n=4, read-out: Biodistribution Kidney): 142 ± 11 %ID/g | tissue uptake at 2 h ([1]; liver, n=4, read-out: Biodistribution Liver): 1.3 ± 0.1 %ID/g | tissue uptake at 2 h ([1]; lung, n=4, read-out: Biodistribution Lung): 1.8 ± 0.4 %ID/g | tissue uptake at 2 h ([1]; muscle, n=4, read-out: Biodistribution Muscle): 0.2 ± 0.1 %ID/g | tissue uptake at 2 h ([1]; pancreas, n=4, read-out: Biodistribution Pancreas): 0.3 ± 0.02 %ID/g | tissue uptake at 2 h ([1]; prostate, n=4, read-out: Biodistribution Prostate): 0.6 ± 0.2 %ID/g | tissue uptake at 2 h ([1]; salivary glands, n=4, read-out: Biodistribution Salivary glands): 0.6 ± 0.1 %ID/g | tissue uptake at 2 h ([1]; spleen, n=4, read-out: Biodistribution Spleen): 1.5 ± 0.4 %ID/g | tissue uptake at 2 h ([1]; stomach, n=4, read-out: Biodistribution Stomach): 0.6 ± 0.1 %ID/g | tissue to tissue ratio at 2 h ([1]; tumor (LS174T-PSMA xenograft) / blood, read-out: Tumor/Blood ratio): 27 ± 2.9 | tissue to tissue ratio at 2 h ([1]; tumor (LS174T-PSMA xenograft) / kidney, read-out: Tumor/Kidney ratio): 0.2 ± 0.02 | tissue to tissue ratio at 2 h ([1]; tumor (LS174T-PSMA xenograft) / liver, read-out: Tumor/Liver ratio): 15.1 ± 1.7 | tissue to tissue ratio at 2 h ([1]; tumor (LS174T-PSMA xenograft) / spleen, read-out: Tumor/Spleen ratio): 14.3 ± 4 | Biodistribution Kidney ([2]; 10 MBq/mouse, i.v., n=4): 142.4 ± 10.6 %ID/g | Biodistribution Tumor+ LS174T-PSMA ([2]; 10 MBq/mouse, i.v., n=4): 19.8 ± 1.9 %ID/g | Biodistribution Tumor+ LS174T-PSMA ([2]; 10 MBq/mouse, i.v., n=4, listed as N03): ≥ 20 %ID/g | Tumor/Negative tumor ratio [2]: 19.9 ± 6.3 | Tumor/Prostate ratio [2]: 35.1 ± 10.7 | Tumor/Salivary gland ratio [2]: 35.0 ± 5.0
